Reference: patent US20230407373A1 (priority 2020, published 2023)
Where two headings read alike, the source gives them in different places.

B1: DHX30 (protein, UniProt Q7L2E3 1-1194, looked up)
ATP-dependent RNA helicase …: MFSLDSFRKDRAQHRQRQCKLPPPRLPPMCVNPTPGGTISRASRDLLKEFPQPKNLLNSVIGRALGISHAKDKLVYVHTNGPKKKKVTLHIKWPKSVEVEGYGSKKIDAERQAAAAACQLFKGWGLLGPRNELFDAAKYRVLADRFGSPADSWWRPEPTMPPTSWRQLNPESIRPGGPGGLSRSLGREEEEDEEEELEEGTIDVTDFLSMTQQDSHAPLRDSRGSSFEMTDDDSAIRALTQFPLPKNLLAKVIQIATSSSTAKNLMQFHTVGTKTKLSTLTLLWPCPMTFVAKGRRKAEAENKAAALACKKLKSLGLVDRNNEPLTHAMYNLASLRELGETQRRPCTIQVPEPILRKIETFLNHYPVESSWIAPELRLQSDDILPLGKDSGPLSDPITGKPYVPLLEAEEVRLSQSLLELWRRRGPVWQEAPQLPVDPHRDTILNAIEQHPVVVISGDTGCGKTTRIPQLLLERYVTEGRGARCNVIITQPRRISAVSVAQRVSHELGPSLRRNVGFQVRLESKPPSRGGALLFCTVGILLRKLQSNPSLEGVSHVIVDEVHERDVNTDFLLILLKGLQRLNPALRLVLMSATGDNERFSRYFGGCPVIKVPGFMYPVKEHYLEDILAKLGKHQYLHRHRHHESEDECALDLDLVTDLVLHIDARGEPGGILCFLPGWQEIKGVQQRLQEALGMHESKYLILPVHSNIPMMDQKAIFQQPPVGVRKIVLATNIAETSITINDIVHVVDSGLHKEERYDLKTKVSCLETVWVSRANVIQRRGRAGRCQSGFAYHLFPRSRLEKMVPFQVPEILRTPLENLVLQAKIHMPEKTAVEFLSKAVDSPNIKAVDEAVILLQEIGVLDQREYLTTLGQRLAHISTDPRLAKAIVLAAIFRCLHPLLVVVSCLTRDPFSSSLQNRAEVDKVKALLSHDSGSDHLAFVRAVAGWEEVLRWQDRSSRENYLEENLLYAPSLRFIHGLIKQFSENIYEAFLVGKPSDCTLASAQCNEYSEEEELVKGVLMAGLYPNLIQVRQGKVTRQGKFKPNSVTYRTKSGNILLHKSTINREATRLRSRWLTYFMAVKSNGSVFVRDSSQVHPLAVLLLTDGDVHIRDDGRRATISLSDSDLLRLEGDSRTVRLLKELRRALGRMVERSLRSELAALPPSVQEEHGQLLALLAELLRGPCGSFDVRKTADD
B2: HNRNPC (protein, UniProt P07910 2-306, looked up)
Heterogeneous nuclear …: ASNVTNKTDPRSMNSRVFIGNLNTLVVKKSDVEAIFSKYGKIVGCSVHKGFAFVQYVNERNARAAVAGEDGRMIAGQVLDINLAAEPKVNRGKAGVKRSAAEMYGSVTEHPSPSPLLSSSFDLDYDFQRDYYDRMYSYPARVPPPPPIARAVVPSKRQRVSGNTSRRGKSGFNSKSGQRGSSKSGKLKGDDLQAIKKELTQIKQKVDSLLENLEKIEKEQSKQAVEMKNDKSEEEQSSSSVKKDETNVKMESEGGADDSAEEGDLLDDDDNEDRGDDQLELIKDDEKEAEEGEDDRDSANGEDDS
B3: SYNCRIP: host protein, UniProt O60506 (protein, UniProt O60506 2-623, looked up)
Heterogeneous nuclear …: ATEHVNGNGTEEPMDTTSAVIHSENFQTLLDAGLPQKVAEKLDEIYVAGLVAHSDLDERAIEALKEFNEDGALAVLQQFKDSDLSHVQNKSAFLCGVMKTYRQREKQGTKVADSSKGPDEAKIKALLERTGYTLDVTTGQRKYGGPPPDSVYSGQQPSVGTEIFVGKIPRDLFEDELVPLFEKAGPIWDLRLMMDPLTGLNRGYAFVTFCTKEAAQEAVKLYNNHEIRSGKHIGVCISVANNRLFVGSIPKSKTKEQILEEFSKVTEGLTDVILYHQPDDKKKNRGFCFLEYEDHKTAAQARRRLMSGKVKVWGNVGTVEWADPIEDPDPEVMAKVKVLFVRNLANTVTEEILEKAFSQFGKLERVKKLKDYAFIHFDERDGAVKAMEEMNGKDLEGENIEIVFAKPPDQKRKERKAQRQAAKNQMYDDYYYYGPPHMPPPTRGRGRGGRGGYGYPPDYYGYEDYYDYYGYDYHNYRGGYEDPYYGYEDFQVGARGRGGRGARGAAPSRGRGAAPPRGRAGYSQRGGPGSARGVRGARGGAQQQRGRGVRGARGGRGGNVGGKRKADGYNQPDSKRRQTNNQNWGSQPIAQQPLQGGDHSGNYGYKSENQEFYQDTFGQQWK
B4: TIA1 (protein, UniProt P31483 1-386, looked up)
Cytotoxic granule associated …: MEDEMPKTLYVGNLSRDVTEALILQLFSQIGPCKNCKMIMDTAGNDPYCFVEFHEHRHAAAALAAMNGRKIMGKEVKVNWATTPSSQKKDTSSSTVVSTQRSQDHFHVFVGDLSPEITTEDIKAAFAPFGRISDARVVKDMATGKSKGYGFVSFFNKWDAENAIQQMGGQWLGGRQIRTNWATRKPPAPKSTYESNTKQLSYDEVVNQSSPSNCTVYCGGVTSGLTEQLMRQTFSPFGQIMEIRVFPDKGYSFVRFNSHESAAHAIVSVNGTTIEGHVVKCYWGKETLDMINPVQQQNQIGYPQPYGQWGQWYGNAQQIGQYMPNGWQVPAYGMYGQAWNQQGFNQTQSSAPWMGPNYGVQPPQGQNGSMLPNQPSGYRVAGYETQ
B5: UBAP2L (protein, UniProt Q14157 1-1087, looked up)
Ubiquitin-associated protein …: MMTSVGTNRARGNWEQPQNQNQTQHKQRPQATAEQIRLAQMISDHNDADFEEKVKQLIDITGKNQDECVIALHDCNGDVNRAINVLLEGNPDTHSWEMVGKKKGVSGQKDGGQTESNEEGKENRDRDRDYSRRRGGPPRRGRGASRGREFRGQENGLDGTKSGGPSGRGTERGRRGRGRGRGGSGRRGGRFSAQGMGTFNPADYAEPANTDDNYGNSSGNTWNNTGHFEPDDGTSAWRTATEEWGTEDWNEDLSETKIFTASNVSSVPLPAENVTITAGQRIDLAVLLGKTPSTMENDSSNLDPSQAPSLAQPLVFSNSKQTAISQPASGNTFSHHSMVSMLGKGFGDVGEAKGGSTTGSQFLEQFKTAQALAQLAAQHSQSGSTTTSSWDMGSTTQSPSLVQYDLKNPSDSAVHSPFTKRQAFTPSSTMMEVFLQEKSPAVATSTAAPPPPSSPLPSKSTSAPQMSPGSSDNQSSSPQPAQQKLKQQKKKASLTSKIPALAVEMPGSADISGLNLQFGALQFGSEPVLSDYESTPTTSASSSQAPSSLYTSTASESSSTISSNQSQESGYQSGPIQSTTYTSQNNAQGPLYEQRSTQTRRYPSSISSSPQKDLTQAKNGFSSVQATQLQTTQSVEGATGSAVKSDSPSTSSIPPLNETVSAASLLTTTNQHSSSLGGLSHSEEIPNTTTTQHSSTLSTQQNTLSSSTSSGRTSTSTLLHTSVESEANLHSSSSTFSTTSSTVSAPPPVVSVSSSLNSGSSLGLSLGSNSTVTASTRSSVATTSGKAPPNLPPGVPPLLPNPYIMAPGLLHAYPPQVYGYDDLQMLQTRFPLDYYSIPFPTPTTPLTGRDGSLASNPYSGDLTKFGRGDASSPAPATTLAQPQQNQTQTHHTTQQTFLNPALPPGYSYTSLPYYTGVPGLPSTFQYGPAVFPVAPTSSKQHGVNVSVNASATPFQQPSGYGSHGYNTGVSVTSSNTGVPDISGSVYSKTQQSFEKQGFHSGTPAASFNLPSALGSGGPINPATAAAYPPAPFMHILTPHQQPHSQILHHHLQQDGQTGSGQRSQTSSIPQKPQTNKSAYNSYSWGAN
B6: CHTOP (protein, UniProt Q9Y3Y2 2-248, looked up)
Chromatin target of PRMT1 …: AAQSAPKVVLKSTTKMSLNERFTNMLKNKQPTPVNIRASMQQQQQLASARNRRLAQQMENRPSVQAALKLKQSLKQRLGKSNIQARLGRPIGALARGAIGGRGLPIIQRGLPRGGLRGGRATRTLLRGGMSLRGQNLLRGGRAVAPRMGLRRGGVRGRGGPGRGGLGRGAMGRGGIGGRGRGMIGRGRGGFGGRGRGRGRGRGALARPVLTKEQLDNQLDAYMSKTKGHLDAELDAYMAQTDPETND
B7: PURB (protein, UniProt Q96QR8 2-312, looked up)
Transcriptional regulator …: ADGDSGSERGGGGGPCGFQPASRGGGEQETQELASKRLDIQNKRFYLDVKQNAKGRFLKIAEVGAGGSKSRLTLSMAVAAEFRDSLGDFIEHYAQLGPSSPEQLAAGAEEGGGPRRALKSEFLVRENRKYYLDLKENQRGRFLRIRQTVNRGGGGFGAGPGPGGLQSGQTIALPAQGLIEFRDALAKLIDDYGGEDDELAGGPGGGAGGPGGGLYGELPEGTSITVDSKRFFFDVGCNKYGVFLRVSEVKPSYRNAITVPFKAWGKFGGAFCRYADEMKEIQERQRDKLYERRGGGSGGGEESEGEEVDED

Experiments:
Assay type in all cases: binding
SARS-CoV-2 gRNA = settings: […]; LC-MS/MS; Probe I sample (first 199 lines of Table 2)
[1] = tested on: SARS-CoV-2 gRNA and sgRNAs; settings: for target (unweighted spectral count in RNP capture): Probe II capture, LC-MS/MS LFQ; for background (unweighted spectral count in control): no-probe control pull-down, used as background for Probe II; for target (unweighted spectral count of the protein in the RNP capture experiment): LC-MS/MS label-free quantification, probe pool not given; for back-ground (unweighted spectral count of the protein in the control experiment): protein background of the control (e.g. no-probe) experiment
gRNA of HCoV-OC43 = settings: type n_48_v: 48 hours post-infection; for background (spectral count, no-probe control): no-probe control on infected cells; for target (spectral count, OC43 Probe I RNP capture): infected cells, unweighted spectral count
HCoV-OC43 gRNA and sgRNA = settings: for target (unweighted spectral count, OC43 Probe II capture): type n_36_v, FDR<10%; for target (unweighted spectral count, OC43 Probe II capture) / target (unweighted spectral count): tested against no-probe control; for target (unweighted spectral count): OC43 Probe II, infected cells; for target (unweighted spectral count, OC43 Probe II) / background (unweighted spectral count, no-probe control): type n_48_v, 48 hpi; for target (unweighted spectral count, OC43 Probe II): OC43 Probe II capture on infected cells; for background (unweighted spectral count, no-probe control): no-probe control on infected cells

Row | Molecule | target (unweighted spectral count of the protein in the RNP capture) (SARS-CoV-2 gRNA) | target (unweighted spectral count in RNP capture) [1] | background (unweighted spectral count in control) [1] | background (spectral count, no-probe control) (gRNA of HCoV-OC43) | target (unweighted spectral count, OC43 Probe II capture) (HCoV-OC43 gRNA and sgRNA; 36 hpi) | target (unweighted spectral count) (HCoV-OC43 gRNA and sgRNA; 12 hpi (type n_12_v)) | target (unweighted spectral count) (HCoV-OC43 gRNA and sgRNA; 24 hpi (type n_24_v)) | target (unweighted spectral count, OC43 Probe II) (HCoV-OC43 gRNA and sgRNA) | background (unweighted spectral count, no-probe control) (HCoV-OC43 gRNA and sgRNA) | target (spectral count, OC43 Probe I RNP capture) (gRNA of HCoV-OC43) | target (spectral count) (HCoV-OC43 gRNA and sgRNA; type s_36_m, HCoV-OC43-infected HCT-8 cells, 36 hpi, Probe II) | background (spectral count) (HCoV-OC43 gRNA and sgRNA; type s_36_m, uninfected-probe control, 36 hpi, Probe II) | target (unweighted spectral count of the protein in the RNP capture experiment) [1] | back-ground (unweighted spectral count of the protein in the control experiment) [1]
1 | B1 | 13 | – | – | – | – | – | – | – | – | – | – | – | – | –
2 | B2 | – | 75 | 2 | 19 | 69 | 30 | 40 | 88 | 19 | – | – | – | – | –
3 | B3 | – | 159 | 1 | 7 | 97 | 33 | 55 | 87 | 7 | 88 | 97 | 23 | – | –
4 | B4 | – | 11 | 1 | – | 6 | – | – | – | – | – | – | – | – | –
5 | B5 | – | 17 | 1 | 1 | 5 | – | – | – | – | 6 | – | – | – | –
6 | B6 | – | – | – | 1 | 5 | – | – | 6 | 1 | 6 | – | – | 5 | 1
7 | B7 | – | – | – | 1 | – | – | – | 5 | 1 | 5 | – | – | 5 | 1
